Measurements as given in publication PMC3471233.

Target: GFP-CLASP2 S1234A mutant (human)
Assay: co-IP

reduction of co-immunoprecipitated Plk1 relative to wild type: 40%
Substance: Polo-like kinase 1 (Plk1), endogenous (from UniProt P53350 1-603) (natural protein)
